Results published in the supplement of paper PMC12764529.
± gives the half width of the 95% confidence interval.

Columns and labels:
[1] = folding stability dG unfold (combined trypsin and chymotrypsin); higher = more stable
In short: (§1)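 How resistant each design was to proteolysis was captured as K50, inferred by Bayesian fitting of sequencing counts. Unfolding free energy was then derived relative to a sequence-predicted unfolded-state K50 and a shared folded-state K50, per protease or combined. Digestion used trypsin and chymotrypsin at 11 threefold-diluted concentrations plus a no-protease condition, on mini-proteins under 80 residues without cysteine in a PA-tagged cDNA display construct. Designs were kept only when AlphaFold2 dimer inter-PAE was above 15.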

[2] = folding stability dG unfold from trypsin proteolysis; higher = more stable
In short: as §1

[3] = folding stability dG unfold from chymotrypsin proteolysis; higher = more stable
In short: as §1

Row | Sequence | folding stability dG unfold [1] [kcal/mol] | folding stability dG unfold [2] [kcal/mol] | folding stability dG unfold [3] [kcal/mol]
1 | SAGGETVTLTLKVETLEELEALAKKLAEETGEEVTIEVIGPDGKKYTFKTPEELKNIPGATVKITIKKSAGG [r13_620_TrROS_Hall] | 2.87 ± 0.15 | 2.19 ± 0.13 | 2.96 ± 0.041
2 | SAGGSAGGSAGGEKVTLTLELPAEEIEELAKALAPPGAKVKITKISYDKENKKVTIEIESAGGSAGGSAGGS [r10_1030_TrROS_Hall] | 1.23 ± 0.07 | 0.937 ± 0.061 | 1.4 ± 0.026
3 | SAGGSKVRIEVEELPDGTVKVTAEVEVDGVLYKIEAEFRINEDGEIVEMKVKIEARPLPPPPPPEESAGGSA [r2_474_TrROS_Hall] | 3.92 ± 0.21 | 3.5 ± 0.27 | 4.17 ± 0.17
4 | SAGGSAGGSAGGKITFAPKTTLLLTATIPVTVYSLHPDGTLTTETRSATITFTIPPELLSAGGSAGGSAGGS [r10_383_TrMRF] | 3.64 ± 0.12 | 2.4 ± 0.086 | 4.1 ± 0.074
5 | SAGGSGMSFSITEEVVIPTPGPRTLLLLKTEGDIIIVERDGERLRPVKTVPRKEVPEEPEKLIEELSAGGSA [r2_133_JUSTAS] | -0.434 ± 0.12 | -1.07 ± 0.34 | -0.243 ± 0.15
6 | SAGGSAGGSAGGKVLHVPYENIEEKIKEAEEKYPNKEILIHAYLPNGKLLKTIKIKVKKSAGGSAGGSAGGS [r10_741_TrMRF] | 1.23 ± 0.053 | 1.29 ± 0.026 | 1.18 ± 0.03
7 | SAGGIRIKPGQILVIDIERPTGNERKIIIPMDDPEEVIEQLGFPPENFRIKDIEVVPMPPEQAKDFLESAGG [r13_850_TrROS] | 0.321 ± 0.17 | -0.0896 ± 0.28 | 0.585 ± 0.1
8 | SAGGSAKPKIKINIFYPKDGQWYVMIQDPGGEEVMGPWDDIDKIIEAGIPADDVEIEWMPMPPGQFSAGGSA [r15_955_TrROS] | 1.09 ± 0.05 | 1.03 ± 0.014 | 1.15 ± 0.048
9 | SAGGSAGGSSQEREFTLPDPDGKDIKITMHQNPDGRPRAEIENKDGEPVKEFDSPDDIEDLLKSAGGSAGGS [r20_202_TrROS] | -0.0562 ± 0.22 | -0.273 ± 0.2 | 0.168 ± 0.06
10 | SAGGSAGGSAGGMIKVTFKIPGKNETIEIDFDSEEELEEKFKELREKLGYNIEVVEIEESAGGSAGGSAGGS [r10_1087_JUSTAS] | 1.92 ± 0.2 | 2.19 ± 0.19 | 2.19 ± 0.12
11 | SAGGMPEVKYLEITITVEVPTEEEALEKLKEELKKLFPNAEIVSVEVEVEEEDGKLTVTVKITVKLPSAGGS [r8_120_TrROS_Hall] | 3.35 ± 0.16 | 3.66 ± 0.22 | 2.48 ± 0.11
12 | SAGGEKKPVKVKIEVESFKLPNVLVLKAKVYLPATGKWYEAIVIEGPTKTLVVIKFPDGSSLVLELNSAGGS [r16_657_TrMRF] | 3.9 ± 0.31 | 2.97 ± 0.17 | 4.12 ± 0.12
13 | SAGGSAIPGMPIKEIARALQDKFPPGKPPQIKIRNKNGETKTFEPNKTIDDIPMDGVVEIEIEFRPSAGGSA [r15_50_TrROS] | 0.0509 ± 0.19 | -0.52 ± 0.62 | 0.0124 ± 0.075
14 | SPSRPTLVTTYTFDPSGVPTATTKEITPEEVEELEKKGWKKLSEDPEKGLITLEKKLPTSPQKIEVTILPSA [r9_5_JUSTAS] | 0.0748 ± 0.29 | -0.402 ± 0.2 | 0.0733 ± 0.27
15 | SAGGSAGGSAVAEEFKKKFPDKTVTVEAFTFERTVTHPDGGSSTERVTVLNVTVSSSDDPGSAGGSAGGSAG [r3_358_TrMRF] | 1.96 ± 0.11 | 1.35 ± 0.071 | 2.15 ± 0.1
16 | MKPIPAEEIRDLAQKLGLPLPPGQIQIKVRHNNKKKTFPIPAGDPITIDDIVENMQQQNPNIKDIEIVIHPS [r1_135_TrROS] | < -1 | -0.754 ± 0.53 | -0.389 ± 0.28

Row | Sequence | folding stability dG unfold [1] [kcal/mol] | folding stability dG unfold [2] [kcal/mol] | folding stability dG unfold [3] [kcal/mol]
17 | KIKELAKKLGLNVTVKVEKKPIKNPDGSTYTITKVEVTVDKKNKTITIKVEVKNKKTNKTITKTYTIKLKKS [r1_448_TrROS_Hall] | 2.64 ± 0.24 | 2.37 ± 0.12 | 2.26 ± 0.11
18 | SAGGMMEVEEREVEIELELEPGQSIEEALRELLGLEEGDEIVDVEVEVDPETRKVKIRVVILRPPEEESAGG [r13_828_TrROS_Hall] | 3.68 ± 0.52 | 4.24 ± 0.39 | 2.79 ± 0.2
19 | SAGGSAGGGMVKVTLRITYYNSTGPYTSDRVFELPPDEVEALIEAIPPPPDATPEVEVEREPLGSAGGSAGG [r6_428_JUSTAS] | 1.22 ± 0.14 | 0.8 ± 0.042 | 1.53 ± 0.15
20 | SAGGSMISTLSESVDPAKNTTYYLNLYTEGSRAYGALVTVTTDPATGTKTITTKFPALPEVTTTETVASAGG [r13_615_JUSTAS] | 0.551 ± 0.034 | 0.511 ± 0.026 | 0.489 ± 0.061
21 | SAGGSAGGSAGGSMIVERKPAPGGPRVEITIEIPDPTSDVPIIKKLVAEVLEDGSIVKASAGGSAGGSAGGS [r4_448_JUSTAS] | -0.205 ± 0.21 | -0.193 ± 0.16 | -0.525 ± 0.27
22 | SAGGSAGGNGPPDIKIKIEILEVHPGHRDPDGKYYFRVRVEIEYPNKPVKVDFPMPADDAKDLISAGGSAGG [r6_724_TrROS] | 3.66 ± 0.15 | 2.93 ± 0.11 | 4.2 ± 0.092
23 | SAGGSAGGSEEKTVLARIKITFPDGEKREIEVEMTLDELKKLLEELGLSEEEVKIEVELVPLPSAGGSAGGS [r20_154_TrROS_Hall] | 3.8 ± 0.087 | 3.99 ± 0.11 | 3.56 ± 0.071
24 | SAGGSAGGSVKVYTIEFLGDGKPYLLSIDDNGNFVIYVPNPKNIDAVKKAIPSNYKIVEIKPLSAGGSAGGS [r12_9_TrMRF] | 1.52 ± 0.17 | 0.989 ± 0.036 | 2.01 ± 0.13
25 | SAGGSAGGSAGGLPPFDLGFESVEVEEVFPDGPVVVTVRLPDRTVRLVVVGGRIVRVEPSSAGGSAGGSAGG [r17_396_TrMRF] | 1.75 ± 0.085 | 1.68 ± 0.036 | 1.97 ± 0.048
26 | SAAFAIKAIATPPNGKKYEILALDNGEGVLVFIENGSKEIPLEELIKLIENNPELKIEKIEIRPLSEFLSAG [r14_336_TrMRF] | 0.611 ± 0.17 | 0.667 ± 0.11 | 0.486 ± 0.19
27 | SAGGSAGGSAPWYIAIYMPGNGRKRTYPFKSADDIKEEIKEHLGPGMNPDNVEIKIIPPDDISAGGSAGGSA [r18_350_TrROS] | -0.0945 ± 0.38 | 0.279 ± 0.14 | -0.782 ± 0.81
28 | SPLKEGDTLTFTLPVPDLPNVRIEIDLHFYKDPNTDRYRVLANITVYYGDKPVTFSIEMPVDTFLDLLKSSA [r9_71_TrMRF] | 2.87 ± 0.18 | 2.99 ± 0.24 | 2.34 ± 0.12
29 | SAGGMTIFLPLENKEEVIEKLKKEGYKPVEVKEEGDVVTIKVEKKKDEKKEEITIVFYPPSKPEEPVSAGGS [r8_307_JUSTAS] | 2.68 ± 0.1 | 2.77 ± 0.14 | 2.59 ± 0.085
30 | SAGGMTPEEARKLAEELAKKLEEEGKEVEVKVEVNKDGKVVKIEIKPEGEKVTITLPDGEKVLELELPSAGG [r13_693_TrROS_Hall] | 1.03 ± 0.25 | 1.09 ± 0.048 | 1 ± 0.089
31 | SAGGSKKVILIAKIPNEDKYLVLIASDSPELVKEAAKKAKKPGFYVLGEMTVEEAVKKLGLPPELFKSAGGS [r16_438_TrMRF] | 2.23 ± 0.19 | 1.04 ± 0.03 | 2.5 ± 0.051
